According to patent US12559537B2, “Nucleic acid encoding NKP30 receptor targeted therapeutics” (THE TRUSTEES OF DARTMOUTH COLLEGE, priority 2011, dated 2026):

System: K562 target cells
Experiment: Cytotoxicity-blocking with soluble NKp30 (LDH release)
Assay type: cell-based, human
Conditions: 10 μg/ml, K562 targets, E:T 5:1, 5-h LDH release
Method: FIG. 7C further illustrates that lysis was mediated by the chimeric NKp30 constructs. […] Effector T cells modified with wtNKp30 or NKp30-CD28-3ζ were cocultured with target cells K562 in the presence of 10 μg/ml NKp30-mIgG2a or mouse IgG at a ratio of 5:1; the percentage of specific lysis was determined after a 5-h LDH-release assay. The data are presented as mean+/−SD and are representative of two independent experiments.
The cytotoxic activity of chimeric NKp30-modified human T cells against various tumor cell lines was determined. […] To confirm that chimeric NKp30-mediated killing is dependent on the interactions between NKp30 and its ligands, soluble NKp30 (NKp30-mIgG2a) was incubated with K562 target cells prior to the coculture with T cells.
Cytotoxicity of T cells against target cells was determined by an LDHrelease assay using the CytoTox 96 Non-Radioactive Cytotoxicity Assay kit (Promega, Madison, WI). Specific lysis was determined using the following equation: percentage of specific lysis=[(experimental−effector spontaneous−target spontaneous)/(target maximum−target spontaneous)]×100. In the cytotoxicity-blocking experiments, K562 target cells were preincubated with a soluble NKp30 receptor, NKp30-mIgG2a ([…]), for 30 min before coculture with T cells in an LDH-release assay.

“NKp30-mIgG2a: soluble fusion protein: extracellular portion of human NKp30 fused to the mouse IgG2a hinge-CH2-CH3 portion” was tested, and the “NKp30-28-3ζ-bearing T cell-mediated cytotoxicity in presence of soluble NKp30” value was “significantly reduced”.
